Experimental data: article PMC8249405 (2021)

B1: Xcc XopR-FL (aa 1-411) (natural protein)
chain: MRLSQLFNSRHRVAPEPHGANPNKTTPLIPGASPQHPLSQAPKSTTSQGASKSHRGMLASARKSLASLRKQLPLTCMGSSPTLETVESPPAHTAAVTPGRTQQQHGTQARVDQRWQPPVPNATDHERVQRPQPQPQQTPPTRQSMSVPPKPARAQQLHGPQRPVDPRMQPPIPERMRRDEGQPPQHDKPASPPVPITPAQSSLPSPRPQPGRQPSLRRLDLQLEEITRQCSDIQKQLFMEDREATPQEQHLLKTRAALIAWRNEVRDSQLEALLVALAPMEDIRAPRTTSSGLAMVQMDAMQHNRREVLKARRKSVDRAALARNYARAQRRLESLKQGDAPKEQIRRLQRMMQGYQNMLALEQIVRSTDDQLERLGAPRLMSGIPTTAEQRRQSFEKERDAHQEAIDNGYY

Legend:
Xcc XopR-FL (aa 1-411) = target: B1; test: SPR; bivalent model, koff1
[1] = target: the molecule itself; test: SPR; bivalent model, koff1

Row | Binder | koff (Xcc XopR-FL (aa 1-411)) [s⁻¹] | koff [1] [s⁻¹]
1 | Arabidopsis thaliana Formin 1 AtFH1-FH1C (domain or fragment) RQGLQSQLLSSPSNSHGGQGFLKQLDALRSRSPSSSSSSVCSSPEKASHKSPVTSPKLSSRNSQSLSSSPDRDFSHSLDVSPRISNISPQILQSRVPPPPPPPPPLPLWGRRSQVTTKADTISRPPSLTPPSHPFVIPSENLPVTSSPMETPETVCASEAAEETPKPKLKALHWDKVRASSDREMVWDHLRSSSFKLDEEMIETLFVAKSLNNKPNQSQTTPRCVLPSPNQENRVLDPKKAQNIAILLRALNVTIEEVCEALLEGNADTLGTELLESLLKMAPTKEEERKLKAYNDDSPVKLGHAEKFLKAMLDIPFAFKRVDAMLYVANFESEVEYLKKSFETLEAACEELRNSRMFLKLLEAVLKTGNRMNVGTNRGDAHAFKLDTLLKLVDVKGADGKTTLLHFVVQEIIRAEGTRLSGNNTQTDDIKCRKLGLQVVSSLCSELSNVKKAAAMDSEVLSSYVSKLSQGIAKINEAIQVQSTITEESNSQRFSESMKTFLKRAEEEIIRVQAQESVALSLVKEITEYFHGNSAKEEAHPFRIFLVVRDFLGVVDRVCKEVGMINERTMVSSAHKFPVPVNPMMPQPLPGLVGRRQSSSSSSSSSTSSSDEDEHNSISLVS | 0.0152 | 
2 | B1 |  | 0.27
